Data on two molecules can be found in paper PMC8417825, “Light-Induced Dynamic Change of Phytochrome B and Cryptochrome 1 Stabilizes SINATs in Arabidopsis” (Frontiers in Plant Science, 2021).

B1: SINAT2-His (natural protein, Arabidopsis thaliana, UniProt Q9M2P4 1-308, looked up)
chain: MAPGGSALKEVMESNSTGMDYEVKTAKVEVNNNKPTKPGSAGIGKYGIHSNNGVYELLECPVCTNLMYPPIHQCPNGHTLCSNCKLRVQNTCPTCRYELGNIRCLALEKVAESLEVPCRYQNLGCHDIFPYYSKLKHEQHCRFRPYTCPYAGSECSVTGDIPTLVVHLKDDHKVDMHDGCTFNHRYVKSNPHEVENATWMLTVFNCFGRQFCLHFEAFQLGMAPVYMAFLRFMGDENEAKKFSYSLEVGAHGRKLTWQGIPRSIRDSHRKVRDSQDGLIIPRNLALYFSGGDRQELKLRVTGRIWKEE
notes: SINAT2 (SINA of Arabidopsis thaliana 2), At3g58040; Printed both as SINAT2-His (pull-down) and His-SINAT2 (ubiquitination assay); also called His-SINAT2

Experiment in all cases: pull-down; in vitro pull-down: about 5 ug GST-tagged protein on glutathione resin, about 2 ug His-tagged protein added, 1 h at 4°C; washed with 1x PBS, 0.1% Triton X-100; anti-His blot
Holding throughout (details): both partners purified

One test concerns the target T1, phyB-N-GST (Arabidopsis thaliana, UniProt P14713 1-645).
T1 construct: phytochrome B (phyB), Arabidopsis thaliana, N-terminus, amino acids 1-645; also called N-terminus of phytochrome B; source: E. coli, purified (glutathione resin)
T1 sequence (looked up): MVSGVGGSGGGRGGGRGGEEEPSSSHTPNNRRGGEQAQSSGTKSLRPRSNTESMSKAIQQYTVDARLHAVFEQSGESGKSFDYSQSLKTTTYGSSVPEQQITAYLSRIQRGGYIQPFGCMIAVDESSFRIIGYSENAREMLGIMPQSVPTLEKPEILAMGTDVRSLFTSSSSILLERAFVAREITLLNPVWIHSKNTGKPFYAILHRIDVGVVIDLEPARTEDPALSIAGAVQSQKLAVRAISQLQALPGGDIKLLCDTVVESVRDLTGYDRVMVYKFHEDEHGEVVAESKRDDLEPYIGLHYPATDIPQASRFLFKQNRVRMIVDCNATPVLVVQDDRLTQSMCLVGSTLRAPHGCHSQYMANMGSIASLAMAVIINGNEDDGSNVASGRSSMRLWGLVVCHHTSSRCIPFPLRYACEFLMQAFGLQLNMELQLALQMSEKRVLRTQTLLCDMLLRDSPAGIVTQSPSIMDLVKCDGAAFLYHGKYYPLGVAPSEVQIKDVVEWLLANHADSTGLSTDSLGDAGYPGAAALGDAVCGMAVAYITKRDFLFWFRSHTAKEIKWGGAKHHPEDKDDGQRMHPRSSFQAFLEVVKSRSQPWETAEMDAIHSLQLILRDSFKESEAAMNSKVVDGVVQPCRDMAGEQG

A further test addresses T2, phyB-C-GST (Arabidopsis thaliana, UniProt P14713 646-1172).
T2 construct: phytochrome B (phyB), Arabidopsis thaliana, C-terminus, amino acids 646-1,172; Cloned into pGEX-4T-1; also called C-terminus of phytochrome B; source: E. coli BL21 (DE3) pLysS, purified (glutathione resin)
T2 sequence (looked up): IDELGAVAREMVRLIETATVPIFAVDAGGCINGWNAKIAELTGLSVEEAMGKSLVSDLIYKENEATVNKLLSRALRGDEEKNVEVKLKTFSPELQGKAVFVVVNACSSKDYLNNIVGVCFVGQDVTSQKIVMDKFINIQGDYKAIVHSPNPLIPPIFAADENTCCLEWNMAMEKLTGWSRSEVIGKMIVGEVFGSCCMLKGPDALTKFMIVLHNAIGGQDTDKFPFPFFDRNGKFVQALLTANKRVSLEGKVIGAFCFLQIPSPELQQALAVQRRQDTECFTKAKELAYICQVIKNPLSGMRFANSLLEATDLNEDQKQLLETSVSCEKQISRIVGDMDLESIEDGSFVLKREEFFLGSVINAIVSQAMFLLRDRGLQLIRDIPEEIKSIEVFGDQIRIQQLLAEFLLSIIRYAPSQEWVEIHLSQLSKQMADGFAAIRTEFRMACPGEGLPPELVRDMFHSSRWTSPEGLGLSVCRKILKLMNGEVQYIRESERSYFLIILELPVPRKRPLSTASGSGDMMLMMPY

A further test deals with T3, CRY1-N-GST (Arabidopsis thaliana, UniProt Q43125 1-490).
T3 construct: cryptochrome 1 (CRY1), Arabidopsis thaliana, N-terminus, amino acids 1-490; Cloned into pGEX-4T-1; also called N-terminus of cryptochrome 1; source: E. coli BL21 (DE3) pLysS, purified (glutathione resin)

The test “SINAT2-His” deals with B1.

T3 sequence (Q43125 1-490): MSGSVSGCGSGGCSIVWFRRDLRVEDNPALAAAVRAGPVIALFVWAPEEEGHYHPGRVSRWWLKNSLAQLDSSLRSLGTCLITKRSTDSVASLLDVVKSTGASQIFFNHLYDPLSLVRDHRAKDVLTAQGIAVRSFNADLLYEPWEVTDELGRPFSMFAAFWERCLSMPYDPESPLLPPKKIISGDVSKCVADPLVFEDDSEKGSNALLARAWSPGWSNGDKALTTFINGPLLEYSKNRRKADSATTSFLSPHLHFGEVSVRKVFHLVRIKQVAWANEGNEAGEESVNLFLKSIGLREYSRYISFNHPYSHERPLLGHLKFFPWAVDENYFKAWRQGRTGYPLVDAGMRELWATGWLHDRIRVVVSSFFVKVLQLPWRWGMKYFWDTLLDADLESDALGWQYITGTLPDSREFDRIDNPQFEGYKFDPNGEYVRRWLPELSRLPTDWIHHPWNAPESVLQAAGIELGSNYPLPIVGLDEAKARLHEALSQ

Turning to B1, the binding result in the test with phyB-N-GST, with phyB-C-GST and with CRY1-N-GST was “binds” each time.

B2: CRY1-C-GST (domain or fragment, Arabidopsis thaliana, UniProt Q43125 491-681, looked up)
chain: MWQLEAASRAAIENGSEEGLGDSAEVEEAPIEFPRDITMEETEPTRLNPNRRYEDQMVPSITSSLIRPEEDEESSLNLRNSVGDSRAEVPRNMVNTNQAQQRRAEPASNQVTAMIPEFNIRIVAESTEDSTAESSSSGRRERSGGIVPEWSPGYSEQFPSEENGIGGGSTTSSYLQNHHEILNWRRLSQTG
notes: cryptochrome 1 (CRY1), Arabidopsis thaliana, C-terminus, amino acids 491-681; Cloned into pGEX-4T-1; also called C-terminus of cryptochrome 1; source: E. coli BL21 (DE3) pLysS, purified (glutathione resin)
As to B2, the binding result with SINAT2-His is on record as “binds”.
